From patent US7223730
Several values for one entry are separate records, joined by “and”; a condition that tells them apart may be missing. Equal entries are not always repeated.

Key:
[1] = system: azocasein
[2] = system: fibrin
[3] = target: human fibrinogen (UniProt P02671)

antithrombosis enzyme purified from the snake venom of Southern-Anhui Agkistrodon acutus
proteolytic activity (azocasein hydrolysis, absorbance at 390 nm) [1]: No proteolytic activity was detected in this assay
fibrinolytic activity [2]: 1 fibrinolytic activity unit per mg protein
fibrinolytic activity (fibrin-plate-clearance assay) ([2]; scale: fibrinolytic activity units per mg of enzyme): 1 and 3
fibrinogen cleavage [3]: One fibrinogen cleavage site was found to be Met 235-Pro236 of the α chain of human fibrinogen
